assay: soluble on expression in E. coli; label from the status in PepcDB or PDB records

**Q.** Which “soluble on expression in E. coli” value does the source give for “MPLDSPAKLEFPLHWAVYVDCKDELNELLKNKSTLEIDKIDPRGRTPLMLAVTLQHFDCARLLMDAGADASIPNKEMWSVSNEAVAQGNEQFIQEVIHHRDYQRANRGAHAMKRSLEKLAEVPDFFCEMNWDFSSWVPFLSQACPSDCHKIYKRGSSVRIDTTLVSFEGASWVRGNQSYIFRLSRNGYAEFIVLDHDERIAAVQELRDDDIFNEYRPLPSALDDRLRNTISTTYIDVENIGFERTSRGFLSWFSSGETNETVDGYDCKVLNASNVHLVTKRRFDHLSSEARARLAQEEASESKAVTSFKKMMSTNKTDENTTRDLYEEGLSPDSYLDPHYEFDTGCDIGKRREVVKKSNAFQATLWMADEYPLNLHDQIIPIVELMAVNSPHFARLHNFIRLQLPAGFPVKIEIPLFHIVSARIAFQNINSPGKHVTPIDNQNVDIEEEAFEIPDGYAIDDDGRYGITWEDDDDRNNRNNRNQVANGNTSRRGLGNNYSDDMLLQYAIQQSLLESTARQPSRVQEEEYVDILEQIESVPVNPETDFYRAIRDSQVEEDRRRREDEQYEEDLRKVLELSKAEQ” here?
**A.** not soluble

**Q.** For “MGSDKIHHHHHHMVLRYTALGDSLTTGRGSGLFSPGFVQRFGDMMEADLKTRTAINIFARSGLNTEEILGLLSYPYVQKCIRDADMITITGCGNDLIDSVLAYQTSKDETIFSRVSAHCHENFEKMIAKVAEIKGENPSPYAIRVFNLYNPFPEIDIAGKWITSFNSHLETLASAPHVKIADAYSIFKGKEQEYLSFDGVHPNSKGYQAMAEAVHKLGYKELSVS”, which “soluble on expression in E. coli” value is on record?
**A.** not soluble

**Q.** Which “soluble on expression in E. coli” value does the source give for “MMKTVLIYYPFSLAAERNSGSKLRPYEMHQAFLRWGAKEGVDVLLIAGTSAEREKQFQELRSQGKLDDVWFCYMENQTIPLWLTDPGHRSQRPFVDRDVLRYLKARNVPIGVFYRDVYWKFPDLYPLRGWKKAAMQMMYRWEERFYERYCDVIFLPSLEMGTYVAIRRPMVDLPPGGKQKPFQRFGTAKQPLNAIYVGGINNADYGLLLLLEAIRLANRRKPLVSLTVVCRKDEYERQPLAVKEELAALQVRVEHVSGEALDRLYAEMDFAFIPRRRSEYNDFSVPVKLVDYLSSGLPIVATACSAQKRLIEADGYGVICDDNPSSMAEAIAKMADMLEECRLRIAQTFMAKHSWEARVEKVKETLVGGLR” here?
**A.** not soluble

**Q.** For “MWAQKTLQLKARSRGFHLITDEIEQQLPQIHELSVGLLHLFIQHTSASLTLNENADPTVRMDMEAHFNKFVQERAPYYQHTYEGDDDMPAHIKASLLGSSVTIPIQNGRLALGTWQGIYLGEHRDFGGSRRIIATINGELEHHHHHH”, which “soluble on expression in E. coli” value is on record?
**A.** soluble

**Q.** Which “soluble on expression in E. coli” value does the source give for “MNHNDVLRSLRYMLKVNDAKMAEIIGLSGLEVHPLVLATYLKKEEEEGFVRCPERVMAHFLDGLVIYRRGKDESRPQQPIELPVTNNLILKKLRVAFELKEDDLHAILKSVNFPVSKPELSALFRKAGHDNYRPCGDQLMRNFLKGLTLRVRG” here?
**A.** not soluble

**Q.** Which “soluble on expression in E. coli” value does the source give for “MGSDKIHHHHHHMPVLNSVANTVPTRFRFDLLTHDDNDRLQSDSLCPVGFTSLGREPVRLKFGGTKIRDFCVWKTESATGFEARPRVVSDLVTIRFPISGGLARKDGREEVNIDRGQGVIIPFRDMEYERTSRSASMISCTIASVSIFQKMQALYGEERSTFASFVPVVDVNIPQIRIFRTALLRLHDNLQQHGDHNPLSFPIVEELLVFHLLSCWPTTAAVRPTADQVNNRVLRNALDYIEANLASPITVSEIAFAAGVSVRSLQIAFRESKGITPVQYIIECRLDRVHDALKRGFAPGYISQIANAWGFQHHADFSRRYRKRFGETPKQTRTR” here?
**A.** not soluble

**Q.** Which “soluble on expression in E. coli” value does the source give for “MLRRIKRFLGLSTHAYFPNNEVAPTADGSLISTMSRKSTKSERKAAKKEKKRSQLADTSAPAIFHVPTAPADIVTEGEGSTVGQGSEIDRRTVITDSLPYREPSDKVYMGSPPSTVPQAPESSSSTRSLVGSDSIKSRLESMTIDGTSSVLQHVDSLTNSVYSAEFCQEVDSQNTCDAKSRELPVDCDIPTATEPLPISTKSNPVSNSSLTYMADVKLILPDKRDEKSEEVAGMKQLNAELDGLLKTSAPPFQVSTARLPPMLRELPPPANDESMLSGNDEFDDSKNNSVARYLNESHEVMMRSPENKHLRSCGY” here?
**A.** not soluble

**Q.** Which “soluble on expression in E. coli” value does the source give for “MSLTKLIVICGATATGKSGLALNLAMRLGSVILSADSRQVYREFDIGTAKPTLAEQRAVPHYLIDICAPRETMTVADYQEQAQALINSLPVSPLLLVGGTGLYIRSIVQGMKIPRVAPNYELRSQLASLGQTTLYGILQQVDPIAAQKIHPNDPVRTLRAVEVFYITGIPISAQQGENPPDYPILQIGLDCEMERLTERIHKRTEQMITDGLVGEVEYLCQKYGAELPLLNTLGYQEIKQYLTGEISLEAAKELTVLHTRQFAKRQRTWFRASPQIEWFNADHPDLLDIVCQHIQQPEGHHHHHH” here?
**A.** soluble

**Q.** For “MPEIRLRHVVSCSSQDSTHCAENLLKADTYRKWRAAKAGEKTISVVLQLEKEEQIHSVDIGNDGSAFVEVLVGSSAGGAGEQDYEVLLVTSSFMSPSESRSGSNPNRVRMFGPDKLVRAAAEKRWDRVKIVCSQPYSKDSPFGLSFVRFHSPPDKDEAEAPSQKVTVTKLGQFRVKEEDESANHHHHHH”, which “soluble on expression in E. coli” value is on record?
**A.** soluble

**Q.** For “MKQGKFSVFLILLLMLTLVVAPKGKAEAASSGWQPVSGISGCKIRVITDAYTYTKSATSIDAYAETNGKCGKLNYKSFGVSIVEGGDIGPQYSGYFSSRTPTKKFYFSKLPKPTGTPWAVGLSVYKGKAKGAAFVYINPQKRLEHHHHHH”, which “soluble on expression in E. coli” value is on record?
**A.** not soluble

**Q.** For “SESSGGPTSSLAGTSRNTHVEDDDVVFIESVQPPICAPAIPNERNFVFASSKHENPPGTDSTISPSWRDLTSQKGNLCETIVIDDEGDTDTNGGEEKNPTDFIEWGPNGNKSSTKNVDFPIASLSRSKTKTAVGPFNPGRIDVTDAFQNGRFAVHHNPDSWISQSASFPRNQKQQGVDSLSPVASLPKQIFQPSNQQPTKPVKVTCANCKKPLQKGQTAYQRKGSAHLFCSTTCLSSFSHKRTRKTRNVMCKK”, which “soluble on expression in E. coli” value is on record?
**A.** soluble

**Q.** For “MLLNMMCGRQLSAISLCLAVTFAPLFNAQADEPEVIPGDSPVAVSEQGEALPQAQATAIMAGIQPLPEGAAEKARTQIESQLPAGYKPVYLNQLQLLYAARDMQPMWENRDAVKAFQQQLAEVAIAGFQPQFNKWVELLTDPGVNGMARDVVLSDAMMGYLHFIANIPVKGTRWLYSSKPYALATPPLSVINQWQLALDKGQLPTFVAGLAPQHPQYAAMHESLLALLCDTKPWPQLTGKATLRPGQWSNDVPALREILQRTGMLDGGPKITLPGDDTPTDAVVSPSAVTVETAETKPMDKQTTSRSKPAPAVRAAYDNELVEAVKRFQAWQGLGADGAIGPATRDWLNVTPAQRAGVLALNIQRLRLLPTELSTGIMVNIPAYSLVYYQNGNQVLDSRVIVGRPDRKTPMMSSALNNVVVNPPWNVPPTLARKDILPKVRNDPGYLESHGYTVMRGWNSREAIDPWQVDWSTITASNLPFRFQQAPGPRNSLGRYKFNMPSSEAIYLHDTPNHNLFKRDTRALSSGCVRVNKASDLANMLLQDAGWNDKRISDALKQGDTRYVNIRQSIPVNLYYLTAFVGADGRTQYRTDIYNYDLPARSSSQIVSKAEQLIR”, which “soluble on expression in E. coli” value is on record?
**A.** soluble

**Q.** With “MGSDKIHHHHHHMEYISLNRLGGAAGCPADAEAAARFRAALPEGCKGTFAVARRIAPVIIDFDLVMQEGAASVSLAKGLGLPVVPCIRRQVERARTDFPQRLQLELTNCCNNDCVMCPRHGGHFTRKPKHMDLDLVRRALDEIAQHYNYQLQLFHIGEPLLHPRIFEILDMLEDYPTLGRKWISSKGQELTPDIMRRVLTSKVDYFNYSLLAMTPATYARIVPNGDYATVRGNLERLADLKRDLGVQRPYLRAQMIEMDEALHEIDAFLDTWADRVDLLSVNRLETFSNRIDAKVTSAIKPRESIGPRACKRLERGDLYILSNGEVTVCDTDFNGELSLGNLNETTLAEMARGARYRQIIDSHERGDYSQIELCRHCEDWNL” as the sequence, how does the “soluble on expression in E. coli” value read?
**A.** not soluble

**Q.** With “MTPFPAYVPPDFTRPDLAAAPPVRVAEAPGSGVLPAGFHATSNYPEYVHLGGGRWLLASGSRMDAVLVLDGDMLRVVEPRLVRRGDRVVVGRTENGEEGIYVHTTGFDAPAGAGGDKFTFRSRGTRESPFSRSYEELYDILRHDRDHGHIVWVLGPAVAFDRDSRAAMAGLIGGGYCHALLAGNALATHDLEAALFHTGLGQDIYTQALVAGGHYHHLDVINEVLRHGSLERAIAELGIRDGIIRACLEHRVPVVLAGSIRDDGPLPDVITDSRQAQDAMRAHARRATTVIALATQLHAIAVGNMTPSYRVLDDGTVRPVYFYIVDMSEFGADKLANRGSGQARAILTNVQDFMVNLWNNLKG” as the sequence, how does the “soluble on expression in E. coli” value read?
**A.** not soluble

Source: the DeepSol protein solubility set
